According to the nanobody polyreactivity screen of Harvey et al. (2022):

Assay: yeast display, Sf9 membrane polyspecificity reagent, FACS + sequencing; frameworks hold sequencing errors
Outline: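 Galactose-induced (36–48 hours) yeast carrying a synthetic nanobody display library were exposed to 10% biotinylated, detergent-solubilized Sf9 membrane reagent at 4 °C for 1 hour. FACS followed streptavidin microbead enrichment, using low and high (top ~1%) gates for expression (anti-HA) and reagent binding (streptavidin). Colony PCR, MiSeq 2 × 250 sequencing and CDR-length filtering followed. Labels for polyreactivity reflect the gate of origin.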

Sequence	polyreactivity (PSR sort gate)
QVQLVESGGGLVQAGGSLRLSCAASGFTFEDNTMGWYRQAPGKERELVAAITWGGVSTYYADSVKGRFTISRDNAKNTVYLQMNSLKPEDTAVYYCARDYDVYTVYLMDYWGQGTQVTVSS	low polyreactivity
QVQLVESGGGLVQAGGSLRLSCAASGSTFESYAMGWYRQAPGKERELVAAISRRGGRTYYADSVKGRFTISRDNAKNTVYLQMYSLKPEDTAVYYCATDSSYYGSDDYWGQGTQVNVSS	high polyreactivity
QVQLVESGGGLVQAGGSLRLSCAASGIISSVYAMGWYRQAPGKERELVAAITGSGGNTYYADSVKGRFTISRDNAKNTVSLQMNSLKPEDTAVYYCATDDAIISYELVYQYDHWGQGTQVTVSS	low polyreactivity
QVQLVESGGGLVQAGGSLRLSCAASGRTFKSNAMRWYRQAPGKERELVATISRGGGSTYYADSVKGRFTISRDNAKNTVYLQMNSLKPEDTAVYYCAIGSNSYLRYHYTYPYDYWGQGTQVTVSS	high polyreactivity
QVQLVESGGGLVQAGGSLRLTCAASGRTFSKYAMGWYRQATGKERELVAAITSGGGTYYADSVKGRFTISRDNAKNTVYLQMNSLNPEDTAVYYCAVSVTTVSTYDYWGQGTQVTVSS	low polyreactivity
QVQLVESGGGLVQAGGSLRLSCAASGSIFRFYAMGWYRQAPGKERELVAAITSGGSTNYADSVKGRFTISRDNAKNTVYLQMNSLKPEDTAVYYCAAELVYFFIYDYWGKGTQVTVSS	low polyreactivity
QVQLVESGGGLVQAGGSLRLSCAASGSIFAYYAMGWYRQAPGKEREFVARITYSTDGTYYADSVKGRFTISRDNAKNTVYLQMNSLKPEDTAVYYCAVDTWWGFKRYKFDYWGQGTQVTVSS	low polyreactivity
QVQLVESGGGLVQAGGSLRLSCAASGFTFDRYAMGWYRQAPGKERELVAAISRSGASTYYADSVKGRFTISRDNAKNTVYLQMNSLKPEDTAVDDCAAKQRTKGDYWGQGTQVTVSS	high polyreactivity
QVQLVESGGGVVQAGGSLRLSCAASGFTPGNVMGGYRQAPGKERELVAAISWTGDSTYYAASVKGRFTISRDNAKNTVYLQMNSLKPEDTAVYYCAADGVPGRALDYEYWGQGTQVTVSS	high polyreactivity
QVQHVESGGGLVQAGGSLRLSCAASGRTVASYAMGWYRPAPGKERELVAVITRGGRTYYADSVKGRFTISRDNAKNTVYLQLNSLKPEDTAVYYCKAAYYSSSYLEDSWGHGTQVTVSS	high polyreactivity
QVQLVESGGGLVQAGGSLRLSCAASGRTFGWYAMGWYRQAPGKERELVAAIRSSGGRTHYADSVKGRFTISRDNAKNTVYLQMNSLKPEDTAVYYCAARYSAAYYWGQGTQVTVSS	high polyreactivity
QVQLVESGAGLVQAGGSLRLSCAASGYTFSPNDMGWYRQAPGKERELVAAITSSVGSTYYADSVKGRFTISRDNAKNTVYLQMNSLKPEDTAVYYCNKQDSSYYISGGGDYDYWGQGTQVTVSS	low polyreactivity
QVQLVESGGGLVQAGGSLRLSCAASGLISHNNAMGWYRQAPGKEREFVAAITTTGSSTYYADSVKGRFTISRDNEKNTVYLQMNSLKPEDTAVYYCAAESVPSRSEMDYWGQGTQVTVSS	low polyreactivity
QVQLVESGGGLVQAGGSLRLSCAASGSILRDHAMGWYRQATGKERELVAAITSGDSTHYADSVKGRFTISRDNAKNTVYLQMNSLKPEDTAVYYCATKWSLISIHGYYYWGQGTQVTVSS	low polyreactivity
QVQLVESGGGLVQAGGSLRLSCAASGFTFVAYAMGWYRQAPGKERELVAAISRRGGTTYYADSVKGRFTISRDNAKNTVYLQMNSLKPEDTAVYYCNARGFPGKFGYWGQGTQVTVSS	high polyreactivity
QVQLVESGGGLFQAGGSLRLSCAASGSIFERYTMGWYRQSPGKERELVAAISRSGGRTYYADSVKGRFTISRDNAKNTVYLQMNSLKAEDTAVYYCARTRVASKGYDYWGQGTQVTVSS	high polyreactivity
QVQLVESGGGLVQAGGSLRLSCAASGRTFAFYTMGWYRQAPGKEREFVAASSWSGGSTHYADSVKGRFTISRDNEKNTVYLQMNSLTQEYTAVYYCAAGPFYRFTDGRDKTLDYWGQGNQVTVSS	high polyreactivity
QVQLVESGGGVVQAGGSLRLSCAASGSIFDGYARGWYRQAPGKERELVAAITRDGGSTHYADSVKGRFTISRDNAKNTVYLEMNSLKPEDTAVYYCASRDHAFRYYRNPFKGKYDYWGQGTQVTVSS	low polyreactivity
QVQLVESGGGLVQAGGSLRLSCAASGRIRPRNAMGWYRQAPGKERELVAGISSDGSTNYADSVKGRFTISRDNAKNTVYLQMNSLKQEDTAVYYCAADGVYDPNLYGYWGQGTQLTVSS	low polyreactivity
QVQLVESGGGLVQAGGSLRLSCAASGSIFWFYGMGWYRQAPGKERELVAAISWSGGNTYADSVKGRFTISRDNAKNTVYVQMNSLKPEDTAVYYCNAVVRAYYTSIWVPRYDYWGQGTQVTVSS	high polyreactivity
HVQLQESGGGLVQAGGSLRLSCAASGSIFQATYMGWYRQAPGKEREFVASITYGSITNYADSVKGRFTIGRDNPKDTLYLQMNSLKPEDTAVYYCAVDRHYIPAFHYWGQGTQVTVSS	low polyreactivity
QVQLVESGGGLVQAGGSLRLSCAASGFIFWRNTMGWYRQAPGKERELVAVITRGGSTYYADSVKGRFTISRDNAKNTVYLQMNSLKPEDTAVYYCAARNDYYKTFSGYDYWGQGTQVTVSS	low polyreactivity

Sequence	polyreactivity (PSR sort gate)
QVQLVQSGGGLVQAGGSLRLSCAASGRIFRLSGMGWYRQAPGKERELVAAITRGASTYYADSVKGRFTISRDNAKNTVYLELNSLKPEDTAVYYCAAEGLITGGYWHLYYWGHGTQVTVSS	high polyreactivity
QGQLVESGGGLVQAGGSLRLSCAASGRTFDSNAMGWYRQAPGKERELFAAISQRGGRTYYADSVKGRFTISRDNAKNTVYFQMNSLKQVYTAFYYCNKVGRRKLDYWGQGTQVTVSS	high polyreactivity
QVQLVESGGGLVQAGGSLRLSCAASGSTFYVYAMGWYRQAPGKERELVAAITSGSSTYADSVKGRFTISRDNAKNTVYLQMNSLKPEDTAVFYCNALSRTAWSYYLYPSTPFDYWGQGTQVTVSS	low polyreactivity
QVQLVESGGGLVQAGGSLRLSCAACGSTFRYNTMGWYRQATGTEREVVAAISSAATTNYADSVKGRFTISRDNAKNTVYLQLNSLNPEDTALYYCARGYSWSVGYPRVQDMDYWGQGTQVTVSS	high polyreactivity
QVQLVESGGGLVQAGGSLRLSCAASGSTFAPNAMGWYRQAPGKERELVAGISWGDSTYYADSVKGRFTISRDNAKNTVYLQMNSLKPEDTAVYYCNVDDPFYSGVVEFDYWGQGTQVTVSS	low polyreactivity
QVQLVESGGGLVQAGGSLRLSCADSGRIIDTYAMVWYRQAPGKERELVASISRSDTSTSNADSVKGRFTISRDNAKNTVYLQMNSLKPEDTAVYYCNKDGVPVNNTKRYDYWGQGTQVTVSS	low polyreactivity
QVQLVESGGGLVHAGGSLRLSCAPSGSIFGPYAMGWYIQAPGKERELVAAIRSGGSTNYADSVKGRFTISRDNAKNTVYLQMNSLKPDDTSVYYWAGEYWGYPYDYWGQGTQVTVSS	low polyreactivity
QVQHVESGGGLVQAGGSLRLSCAASGSIFNRYAMGWYRQAPGKERELVAAITYNGGSTYYADSVKGRFTISRDNAKNTVYLQMNSLKPEDTAVYYCAAERYNGYDYWGQGTQVTVSS	high polyreactivity
QVQLVESGGGLVQAGGSLRLSCAASGSTFRSNAMGWYRQAPGKERELVASINWSGDSTYYADSVKGRFTISRDNAKNTVYLQMNSLKPEDTAVYYCNAVVDTTEYPYEYDYWGQGTQVTVSS	low polyreactivity
QVQLVESGGGLVQAGGSLRLSCAASGSTFSYNAMGWYRQAPRKERELVAAISNTGSTYYADSVKGRFTISRDNAKNTVYLQMYSVKPEDSAVYYCAALWVHKRRQNSAHYDSWGQGTQVTVSS	low polyreactivity
QVQLVESGGGLVQAGGSLRLSCAASGSTFQPYAMGWYRQSPGKEREFVATISGSAGSTYYADSVKGRFKISRDNAKNTVYLQMNSLKPEDTAVYYCNADSGWFGYDYWGQGTQVTVSS	low polyreactivity
QVQLEESGGGLVQAGGSLRLSCAASGSTSLKNAMGWYRQAPGKERELVAAISSGGSTYYADSVKGRFTISRDNAKNTVYLQINSLKPEDTAVYYCAAKYLRGLGYWGQGTQVTVSS	high polyreactivity
QVQLVESGGGLVQAGGSLRLSCAASGSIFLYKAMGWYRQAPGKERELVADITSRGGSTYYADSVKGRFTISRDNAKNTVYLQMTSLKPEDTAVYDCNAVSRYVYGNGKNYYWGQGTHVTVSS	high polyreactivity
QVQLVESGGGLVQEGGSLRLSCAASGSTFHDNAMGWYRQAPGKERELVASITGSSGSTYYADSVKGRFTISRDNAKNTVYLQMNSLKPEDTAVYYCADEGSRWYYFFYGGGGYWGQGTQVTVSS	low polyreactivity
QVQLVESGGGLVQAGGSLRLSCAASGSNFTYNRMGWYRQAPGKEREFVDAITWTGGSTYAYSVKGRFTISRDNAKNTVYLQINSLKPEDTAVYYCAAVRRISWYTPVITRRYYYWGQGTQVTVSS	high polyreactivity
QVQLVESGGGLVQAVGSLRLSCAASGGTIDIYAMGWYRQAPAKERELVARISYSSGSTHYADSVKGRFTNSRDNAKNTVYLQMNSLKPEDTAVYYCAATAYWFYAKYYYWGQGTQVTVSS	high polyreactivity
QVQLVESGGGLVQAGGSLRLSCAASGSTCRPYVMGWFRQAPGKERELVAAISWRGGTTYYADSVKGRFTISRDNAKNTVSLQMNSLKPEDTAVYYCAARGDQGVPVARRYDYWGQGSQVTVSS	high polyreactivity
QDQLVESGGGLVQAGGSLRLSCAASGRISPRYAMGWYRQAPGKERELVAAIDTSDGTTYFADSVKGRFTISRDNAKNTVYLQMNSLKPEDTAVYYCAAEGQLFDLYDYWGQGTQGTVSS	low polyreactivity
QVQLVESGGGLVQAGGSLRLSCAASGSTFPTYAMGWYRQAPGKERELVAAITRGGSTYYADSVKGRFTISRDNAKNTVYLQMHSRKPEDTSVYYCAVYEFLGQIGKRDYWGQGTQVTVSS	low polyreactivity
QVQLVESGGGLVQAGGSLRLSCAASGSIFRSYAMGWYRQAPGKQREFVAAITGSGGRTYYADSVKGRFTISRDNAKNTVYLQMNCLKPEDTAVYYCAAALSRRYKSGGPYGFNYWGQGTQVTVSS	high polyreactivity
QVQLVESGGGLVQAGGSLRLSCAASGSIFFWYAMGWYRQAPGKVRELVAAISYSGSRTYYSDSVKGRFTISRDNAKNTVYLQMNSLKPEDTAVDYFNVSLYSGAEYDYWGQGTQVTVSS	high polyreactivity
